What was measured:
HeLa Kyoto [1] = experiment: solubility in G1/S (NP-40 vs SDS abundance) (log2 ratio); higher = more soluble; conditions: cell cycle stage: G1/S
HeLa Kyoto [2] = experiment: melting temperature (median over replicates), in situ; higher = more thermally stable
HeLa Kyoto [3] = experiment: solubility change mitosis vs G1/S (difference of NP-40 vs SDS log2 ratios) (log2 ratio difference); higher = more soluble in mitosis
HeLa Kyoto [4] = experiment: thermal stability score vs G1/S (z-score of summed log2 fold changes over temperatures); higher = more thermally stable than in G1/S
[5] = cell cycle stage: early G1 (4.5 h after nocodazole release)
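Wherever melting temperature (median over replicates), in situ is given: HeLa Kyoto cells synchronized by double thymidine or nocodazole block, proteins quantified by TMT10plex mass spectrometry, three independent biological replicates.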
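Wherever solubility change mitosis vs G1/S (difference of NP-40 vs SDS log2 ratios) is given: synchronized HeLa Kyoto cells (double thymidine block for G1/S, nocodazole release for mitosis), protein amounts in NP-40 versus SDS lysates quantified by mass spectrometry, three biological replicates.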
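Wherever solubility in G1/S (NP-40 vs SDS abundance) is given: HeLa Kyoto cells arrested at G1/S by double thymidine block, proteins quantified by TMT10plex mass spectrometry in mild NP-40 versus SDS extracts, three biological replicates.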
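Wherever thermal stability score vs G1/S (z-score of summed log2 fold changes over temperatures) is given: synchronized HeLa Kyoto cells, proteins quantified by TMT10plex mass spectrometry, three biological replicates, mitosis taken 0.5 h after nocodazole release, G1/S directly after double thymidine block.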

Sequence	solubility in G1/S (log2) (HeLa Kyoto [1])	melting temperature (HeLa Kyoto [2]; cell cycle stage: G1/S) [°C]	melting temperature (HeLa Kyoto [2]; cell cycle stage: mitosis) [°C]	solubility change mitosis (log2) (HeLa Kyoto [3])	thermal stability score (HeLa Kyoto [4]; [5])	thermal stability score (HeLa Kyoto [4]; cell cycle stage: mitosis)
MGPLPRTVELFYDVLSPYSWLGFEILCRYQNIWNINLQLRPSLITGIMKDSGNKPPGLLPRKGLYMANDLKLLRHHLQIPIHFPKDFLSVMLEKGSLSAMRFLTAVNLEHPEMLEKASRELWMRVWSRNEDITEPQSILAAAEKAGMSAEQAQGLLEKIATPKVKNQLKETTEAACRYGAFGLPITVAHVDGQTHMLFGSDRMELLAHLLGEKWMGPIPPAVNARL [GSTK1]	0.121	50.9	52	-0.098	-1.28	-0.907
MGQTVNEDSMDVKKENQEKTPQSSTSSVQRDDFHWEEYLKETGSISAPSECFRQSQIPPVNDFKVGMKLEARDPRNATSVCIATVIGITGARLRLRLDGSDNRNDFWRLVDSPDIQPVGTCEKEGDLLQPPLGYQMNTSSWPMFLLKTLNGSEMASATLFKKEPPKPPLNNFKVGMKLEAIDKKNPYLICPATIGDVKGDEVHITFDGWSGAFDYWCKYDSRDIFPAGWCRLTGDVLQPPGTSVPIVKNIAKTESSPSEASQHSMQSPQKTTLILPTQQVRRSSRIKPPGPTAVPKRSSSVKNITPRKKGPNSGKKEKPLPVICSTSAASLKSLTRDRGMLYKDVASGPCKIVMSTVCVYVNKHGNFGPHLDPKRIQQLPDHFGPGPVNVVLRRIVQACVDCALETKTVFGYLKPDNRGGEVITASFDGETHSIQLPPVNSASFALRFLENFCHSLQCDNLLSSQPFSSSRGHTHSSAEHDKNQSAKEDVTERQSTKRSPQQTVPYVVPLSPKLPKTKEYASEGEPLFAGGSAIPKEENLSEDSKSSSLNSGNYLNPACRNPMYIHTSVSQDFSRSVPGTTSSPLVGDISPKSSPHEVKFQMQRKSEAPSYIAVPDPSVLKQGFSKDPSTWSVDEVIQFMKHTDPQISGPLADLFRQHEIDGKALFLLKSDVMMKYMGLKLGPALKLCYYIEKLKEGKYS [SCML2]	-0.0128	44.9	49.1	0.137	4.21	8.66
MGRAGAAAVIPGLALLWAVGLGSAAPSPPRLRLSFQELQAWHGLQTFSLERTCCYQALLVDEERGRLFVGAENHVASLNLDNISKRAKKLAWPAPVEWREECNWAGKDIGTECMNFVKLLHAYNRTHLLACGTGAFHPTCAFVEVGHRAEEPVLRLDPGRIEDGKGKSPYDPRHRAASVLVGEELYSGVAADLMGRDFTIFRSLGQRPSLRTEPHDSRWLNEPKFVKVFWIPESENPDDDKIYFFFRETAVEAAPALGRLSVSRVGQICRNDVGGQRSLVNKWTTFLKARLVCSVPGVEGDTHFDQLQDVFLLSSRDHRTPLLYAVFSTSSSIFQGSAVCVYSMNDVRRAFLGPFAHKEGPMHQWVSYQGRVPYPRPGMCPSKTFGTFSSTKDFPDDVIQFARNHPLMYNSVLPTGGRPLFLQVGANYTFTQIAADRVAAADGHYDVLFIGTDVGTVLKVISVPKGSRPSAEGLLLEELHVFEDSAAVTSMQISSKRHQLYVASRSAVAQIALHRCAAHGRVCTECCLARDPYCAWDGVACTRFQPSAKRRFRRQDVRNGDPSTLCSGDSSRPALLEHKVFGVEGSSAFLECEPRSLQARVEWTFQRAGVTAHTQVLAEERTERTARGLLLRRLRRRDSGVYLCAAVEQGFTQPLRRLSLHVLSATQAERLARAEEAAPAAPPGPKLWYRDFLQLVEPGGGGSANSLRMCRPQPALQSLPLESRRKGRNRRTHAPEPRAERGPRSATHW [SEMA3B]	-0.625	55.1	57.9	-0.384	4.5	7.7
MGRLVAVGLLGIALALLGERLLALRNRLKASREVESVDLPHCHLIKGIEAGSEDIDILPNGLAFFSVGLKFPGLHSFAPDKPGGILMMDLKEEKPRARELRISRGFDLASFNPHGISTFIDNDDTVYLFVVNHPEFKNTVEIFKFEEAENSLLHLKTVKHELLPSVNDITAVGPAHFYATNDHYFSDPFLKYLETYLNLHWANVVYYSPNEVKVVAEGFDSANGINISPDDKYIYVADILAHEIHVLEKHTNMNLTQLKVLELDTLVDNLSIDPSSGDIWVGCHPNGQKLFVYDPNNPPSSEVLRIQNILSEKPTVTTVYANNGSVLQGSSVASVYDGKLLIGTLYHRALYCEL [PON2]	0.315	53.6	53.6	-0.101	4.83	4.5
